Assay [1] has as its target human RAD18, wild type, His-tagged or FLAG-tagged (human, UniProt Q9NS91 1-495). As to the kind of experiment: pull-down.
Assay [2] has as its target human RAD6A (human, UniProt P49459 1-152). Nature of the assay: pull-down.

B1: RAD18^ΔC1 (residues 1-341), His-tagged or FLAG-tagged (domain or fragment)
chain: MDSLAESRWPPGLAVMKTIDDLLRCGICFEYFNIAMIIPQCSHNYCSLCIRKFLSYKTQCPTCCVTVTEPDLKNNRILDELVKSLNFARNHLLQFALESPAKSPASSSSKNLAVKVYTPVASRQSLKQGSRLMDNFLIREMSGSTSELLIKENKSKFSPQKEASPAAKTKETRSVEEIAPDPSEAKRPEPPSTSTLKQVTKVDCPVCGVNIPESHINKHLDSCLSREEKKESLRSSVHKRKPLPKTVYNLLSDRDLKKKLKEHGLSIQGNKQQLIKRHQEFVHMYNAQCDALHPKSAAEIVREIENIEKTRMRLEASKLNESVMVFTKDQTEKEIDEIHSK
Regarding B1, in assay [1], the binding result is given as “binds”.

B2: ^HisRAD18^ΔN1 (residues 113-495) (domain or fragment)
chain: AVKVYTPVASRQSLKQGSRLMDNFLIREMSGSTSELLIKENKSKFSPQKEASPAAKTKETRSVEEIAPDPSEAKRPEPPSTSTLKQVTKVDCPVCGVNIPESHINKHLDSCLSREEKKESLRSSVHKRKPLPKTVYNLLSDRDLKKKLKEHGLSIQGNKQQLIKRHQEFVHMYNAQCDALHPKSAAEIVREIENIEKTRMRLEASKLNESVMVFTKDQTEKEIDEIHSKYRKKHKSEFQLLVDQARKGYKKIAGMSQKTVTITKEDESTEKLSSVCMGQEDNMTSVTNHFSQSKLDSPEELEPDREEDSSSCIDIQEVLSSSESDSCNSSSSDIIRDLLEEEEAWEASHKNDLQDTEISPRQNRRTRAAESAEIEPRNKRNRN
B2: the binding result in assay [2] is listed as “binds”.

The values are drawn from PMC3273806 (Nucleic Acids Research, 2011).
